Results on one molecule are retold here after US20030021774A1.

Common to all, as to test: cell-based or functional assay
The target in assay [1] is T1, Sub.Novo(Y217L), mutant of subtilisin from Bacillus amyloliquefaciens (Bacillus amyloliquefaciens) (UniProt P00782).
T1 sequence (looked up): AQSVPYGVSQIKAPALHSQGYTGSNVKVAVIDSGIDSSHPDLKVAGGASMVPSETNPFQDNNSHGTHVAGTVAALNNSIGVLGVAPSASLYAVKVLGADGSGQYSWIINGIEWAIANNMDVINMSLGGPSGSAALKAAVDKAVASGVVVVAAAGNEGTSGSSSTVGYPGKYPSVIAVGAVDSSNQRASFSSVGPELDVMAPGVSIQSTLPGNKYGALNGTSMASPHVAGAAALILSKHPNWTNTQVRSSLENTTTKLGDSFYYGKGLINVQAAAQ

Assay [2] addresses protease derived from Bacillus alcalophilus NCIMB 10438 (Bacillus alcalophilus NCIMB 10438).
Assay [3] has as its target T2, SAVINASE, subtilisin derived from Bacillus clausii (previously Bacillus lentus NCIB 10309) (Bacillus clausii (previously Bacillus lentus NCIB 10309)) (UniProt P29600).
T2 sequence (looked up): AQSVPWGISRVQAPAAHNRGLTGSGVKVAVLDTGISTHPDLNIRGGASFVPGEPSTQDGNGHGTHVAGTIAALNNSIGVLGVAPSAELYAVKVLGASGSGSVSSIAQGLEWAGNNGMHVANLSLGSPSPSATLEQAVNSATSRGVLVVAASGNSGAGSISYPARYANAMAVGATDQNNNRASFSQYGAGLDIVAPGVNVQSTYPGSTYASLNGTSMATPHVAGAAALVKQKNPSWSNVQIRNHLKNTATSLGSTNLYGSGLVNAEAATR

The target in assay [4] is protease derived from Acremonium chrysogenum ATCC 48272 (Acremonium chrysogenum ATCC 48272).
protease derived from Acremonium chrysogenum ATCC 48272 (Acremonium chrysogenum ATCC 48272), sequence (P29118 other isoform, or with tags, fused parts or gaps): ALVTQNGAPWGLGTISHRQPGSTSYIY
Assay [5] has as its target protease derived from Bacillus sp. NCIMB 40484 (Bacillus sp. NCIMB 40484).
In assay [6] the target is protease derived from Paecilomyces lilacinus CBS 102449 (Paecilomyces lilacinus CBS 102449).
Assay [7] deals with T3, Sub.Novo, subtilisin from Bacillus amyloliquefaciens (Bacillus amyloliquefaciens) (UniProt P00782).
T3 sequence (looked up): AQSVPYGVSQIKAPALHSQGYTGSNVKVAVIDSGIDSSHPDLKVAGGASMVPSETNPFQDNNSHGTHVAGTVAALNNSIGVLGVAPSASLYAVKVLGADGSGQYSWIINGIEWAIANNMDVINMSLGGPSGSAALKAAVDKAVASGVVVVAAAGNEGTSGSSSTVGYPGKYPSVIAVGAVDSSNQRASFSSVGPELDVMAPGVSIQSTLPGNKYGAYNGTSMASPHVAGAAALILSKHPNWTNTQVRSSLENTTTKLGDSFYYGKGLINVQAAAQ

Assay [8] has as its target protease derived from Aspergillus sp. CBS 102448.
For assay [9], the target named is protease derived from Fusarium oxysporum IFO 4471 (Fusarium oxysporum IFO 4471).

B1: Streptomyces Subtilisin Inhibitor (SSI) (protein, UniProt P01006 32-144, looked up)
chain: DAPSALYAPSALVLTVGKGVSATTAAPERAVTLTCAPGPSGTHPAAGSACADLAAVGGDLNALTRGEDVMCPMVYDPVLLTVDGVWQGKRVSYERVFSNECEMNAHGSSVFAF
For the molecule B1, the Residual activity (%) on Suc-AAPF-pNA after incubation with SSI in assay [1] came out at 0%; in [2], 0%; in assay [3], 0%; in assay [4], 0.1%; in assay [5] it was 4.3%; in [6], 0.1%. In addition, the Residual activity (%) on Suc-AAPF-pNA after incubation with SSI in assay [7], in [8] and in assay [9] was 0.1% in each case.
